Experimental data published in US20220033501A1 (SHANGHAI PHARMAEXPLORER, published 2022).
Changes are numbered by the printed parent chain.

T1: murine TIM-3 protein with hFc tag (mTIM-3-hFc protein) (mouse; human, UniProt Q8VIM0 29-191)
T1 construct: Made in HEK293 cells; also called mouse TIM-3 extracellular domain protein; not shown: human IgG Fc fragment (hFc) of the pCpC vector
T1 chain: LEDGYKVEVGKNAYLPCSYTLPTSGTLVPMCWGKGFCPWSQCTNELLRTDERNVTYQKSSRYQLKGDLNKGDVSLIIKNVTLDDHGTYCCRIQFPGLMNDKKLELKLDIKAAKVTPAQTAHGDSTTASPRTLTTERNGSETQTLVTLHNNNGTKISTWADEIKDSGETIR

T2: human TIM-3 ECD (antigen protein of the affinity test) (human, UniProt Q8TDQ0 22-200)
T2 sequence: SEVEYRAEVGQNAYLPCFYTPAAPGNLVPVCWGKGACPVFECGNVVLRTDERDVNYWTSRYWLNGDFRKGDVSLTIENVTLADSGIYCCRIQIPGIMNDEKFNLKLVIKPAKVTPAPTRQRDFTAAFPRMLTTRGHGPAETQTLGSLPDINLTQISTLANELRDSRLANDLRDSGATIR

T3: human TIM-3 protein on human PBMC (human, UniProt Q8TDQ0 22-301)
T3 sequence: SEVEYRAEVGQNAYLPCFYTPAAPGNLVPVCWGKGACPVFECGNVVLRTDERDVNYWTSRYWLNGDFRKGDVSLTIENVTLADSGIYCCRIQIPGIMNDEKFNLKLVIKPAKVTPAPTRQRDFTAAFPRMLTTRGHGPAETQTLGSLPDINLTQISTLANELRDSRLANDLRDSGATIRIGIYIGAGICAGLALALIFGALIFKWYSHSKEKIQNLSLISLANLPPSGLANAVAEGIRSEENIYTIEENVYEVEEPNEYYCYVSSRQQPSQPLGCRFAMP

B1: 34B6D8 fully human TIM-3 antibody (human IgG4, kappa) (antibody, V domains shown)
VH: EVQLVESGGGLVQPGGSLRLSCAASGFTFSTYWMTWVRQAPGKRLEWVANIKQGGGDKYYVDSVKGRFTISTDNAKNSLYLQMNSLRAEDTAVYYCARGSNWFDPWGQGTLVTVSS
VL: EIVMTQSPATLSMSPGERATLSCRASQSVYDNLAWYQQKPGQAPRLLIYGASTRATGIPARFSGSGSGTEFTLTISSLQSEDFALYYCQQYTHWPITFGQGTRLEIK
B2: 39E5H1 fully human TIM-3 antibody (human IgG4, kappa) (antibody, V domains shown)
VH: B1 VH with T31S, T35S, R44G, Q53R, G56S, D57E, K58R, T72G, L79V
VL: B1 VL with I2T, T10I, M13V, D31S, P40L, G50D, L85V, T92N, H93N
B3: 57F4E5 fully human TIM-3 antibody (human IgG4, kappa) (antibody, V domains shown)
VH: EVQLVESGGGLVQPGGSLRLSCAASGFTFSSYWMSWVRQAPGKGLEWVANIKQDGSEKYYVDSVKGRFTISRDSAKNSLYLQMNSLRAEDTAMYFCARDSNFFDYWGQGTLVTVSS
VL: ETVMTQSPATLSVSPGERATLSCRASQSVSSNLAWYQRKPGQAPRLLIYFSSTRATGIPARFSGSGSGTEFTLTISSLQSEDFAVYYCQQYNNWPLTFGGGTKVEIK
B4: fully human TIM-3 antibody 18D2H2 (antibody, human IgG4, V domains shown)
VH: B1 VH with G10D, K43R, R44G, G54D, G56S, D57A, I70L, T72R, N74D, P105Y
VL: B3 VL with S26N, S28N, S30Y, R38Q, F50D, S51A, I58F
notes: also called antibody number 2
B5: fully human TIM-3 antibody 134H3G6 (antibody, human IgG4, V domains shown)
VH: EVQLVESGGGLVQPGGSLRLSCAASGFTFSNSWMTWVRQAPGKGLEWVANIKQAGTEKYYVDSVKGRFTISRDNAKNSLYLQMNSLRAEDTAVYYCNSGSNYFDYWGQGTLVTVSS
VL: B3 VL with T2I, S26R, S28N, V29F, S30Y, R38Q, F50G, S51A
notes: also called antibody number 3
B6: fully human TIM-3 antibody 39E5H1 (antibody, human IgG4, V domains shown)
VH: B1 VH with T31S, T35S, R44G, Q53R, G56S, D57E, K58R, T72G, L79V
VL: B1 VL with I2T, T10I, M13V, D31S, P40L, G50D, L85V, T92N, H93N
notes: also called antibody number 6
B7: fully human TIM-3 antibody 57F4E5 (antibody, human IgG4, V domains shown)
VH: B3 VH
VL: B3 VL
notes: also called antibody number 7
B8: fully human TIM-3 antibody 34B6D8 (antibody, human IgG4, V domains shown)
VH: B1 VH
VL: B1 VL
notes: also called antibody number 5
B9: fully human TIM-3 antibody 215A8F2 (antibody, human IgG4, V domains shown)
VH: QVQLQQWGAGLLKPSETLSLTCTVYGGSFSGYYWNWIRQPPGKGLEWLGEINHSGSTNYNPSLKRRVTISVDTSKNQFSLKLSSVTAADTAVYYCARVYYYGPFDFWGQGTLVTVSS
VL: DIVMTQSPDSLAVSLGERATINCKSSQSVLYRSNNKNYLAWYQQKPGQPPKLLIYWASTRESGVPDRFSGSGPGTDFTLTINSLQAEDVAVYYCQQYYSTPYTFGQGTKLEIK
notes: also called antibody number 4
B10: fully human TIM-3 antibody 7A4F10 (antibody, human IgG4, V domains shown)
VH: EVQLLESGGGLVQPGGSLRLSCAASGFTFRTHLISWVRQAPGKGLEWVAAITGSGGSTYYADSVKGRFIISRDNSKNTLFLQMNSLRAEDTAVYYCAKDGGSGSYDDFWGQGTLVTVSS
VL: ETVLTQSPVTLSLSPGERATLSCRASQSVGSYLAWYQQKPGQAPRLLIYDASNRATGIPARFSGSGSGTDFTLTISSLEPEDFAVYYCQQRSNWPPTFGQGTKVEIK
notes: also called antibody number 1

Target: T1, murine TIM-3 protein with hFc tag …
Test: ELISA, coated mTIM-3-hFc

binding result | Binder
no binding (tested: 66.667 nM) | B1
no binding (tested: 66.667 nM) | B2
no binding (tested: 66.667 nM) | B3

Target: T2, human TIM-3 ECD (antigen protein of the …)
Test: AHC sensor kinetics, antibody captured on sensor, antigen protein in solution, global 1:1 fit
Experimental: First, AHC sensor was selected, and the sensor was balanced with buffer solution for 10 min, then the antibody to be tested was diluted to 5 μg/ml with buffer solution, and the antibody was solidified with the sensor for 3-5 min, with a signal value of 1-2 nm. The sensor was balanced again with buffer solution for 3 minutes, and then the antigen protein was diluted to 100 nM (the highest concentration was tentatively 100 nM) to bind and dissociate the antibody coupled by the sensor. If enough signal value was obtained, the antigen protein was diluted by several concentration gradients to analyze the binding and dissociation of antibody and antigen. At that end of each cycle, the sensor surface was regenerated with 10 mM, pH 1.5 Glycine. The kinetic rate constant needed to be subtracted the blank control, and the data was fitted with the global fit analysis method 1:1 combination model. The dissociation equilibrium rate constant (KD) was calculated according to the following formula: KD=kd/ka.

Kd | koff | kon | Binder
2.58 nM | 0.00313 s⁻¹ | 1.22e+06 M⁻¹ s⁻¹ | B4
4.05 nM | 0.00483 s⁻¹ | 1.19e+06 M⁻¹ s⁻¹ | B5
1.46 nM | 0.00155 s⁻¹ | 1.06e+06 M⁻¹ s⁻¹ | B6
2.48 nM | 0.00397 s⁻¹ | 1.6e+06 M⁻¹ s⁻¹ | B7
1.05 nM | 0.0012 s⁻¹ | 1.15e+06 M⁻¹ s⁻¹ | B8
0.133 nM | 0.000128 s⁻¹ | 965000 M⁻¹ s⁻¹ | B9
1.01 nM | 0.00113 s⁻¹ | 1.11e+06 M⁻¹ s⁻¹ | B10

Target: T3, human TIM-3 protein on human PBMC
Test: cell-based or functional assay

IFN-γ production, lymphocyte activation assay (donor Y), antibody 0.1 µg/ml, N = 1 | IFN-γ production, lymphocyte activation assay (donor Y), antibody 0.1 µg/ml, N = 2 | IFN-γ production, lymphocyte activation assay (donor Y), antibody 1 µg/ml, N = 1 | IFN-γ production, lymphocyte activation assay (donor Y), antibody 1 µg/ml, N = 2 | IFN-γ production, lymphocyte activation assay (donor Y), antibody 10 µg/ml, N = 1 | IFN-γ production, lymphocyte activation assay (donor Y), antibody 10 µg/ml, N = 2 | IFN-γ production, lymphocyte activation assay (donor Y), antibody concentration head printed '0' (fifth), N = 1 | IFN-γ production, lymphocyte activation assay (donor Y), antibody concentration head printed '0' (fifth), N = 2 | IFN-γ production, lymphocyte activation assay (donor Y), antibody concentration head printed '0' (fourth), N = 1 | IFN-γ production, lymphocyte activation assay (donor Y), antibody concentration head printed '0' (fourth), N = 2 | Binder
2540 pg/mL | 2750 pg/mL | 3110 pg/mL | 2860 pg/mL | 3050 pg/mL | 3130 pg/mL | 2130 pg/mL | 2050 pg/mL | 2200 pg/mL | 2240 pg/mL | B4
2220 pg/mL | 2550 pg/mL | 3200 pg/mL | 3230 pg/mL | 3400 pg/mL | 3910 pg/mL | 1810 pg/mL | 2120 pg/mL | 2030 pg/mL | 2260 pg/mL | B5
2710 pg/mL | 2710 pg/mL | 3400 pg/mL | 3600 pg/mL | 3500 pg/mL | 4120 pg/mL | 1840 pg/mL | 2100 pg/mL | 2090 pg/mL | 1950 pg/mL | B6
3210 pg/mL | 2870 pg/mL | 3550 pg/mL | 3610 pg/mL | 3960 pg/mL | 3660 pg/mL | 2150 pg/mL | 2100 pg/mL | 2310 pg/mL | 2050 pg/mL | B7
2890 pg/mL | 2900 pg/mL | 3050 pg/mL | 3830 pg/mL | 3520 pg/mL | 3630 pg/mL | 1820 pg/mL | 2040 pg/mL | 2130 pg/mL | 2300 pg/mL | B8
2600 pg/mL | 2340 pg/mL | 3320 pg/mL | 2560 pg/mL | 3140 pg/mL | 2790 pg/mL | 2380 pg/mL | 2070 pg/mL | 1990 pg/mL | 2000 pg/mL | B9
3150 pg/mL | 3220 pg/mL | 3330 pg/mL | 3220 pg/mL | 3340 pg/mL | 3890 pg/mL | 2180 pg/mL | 2090 pg/mL | 2250 pg/mL | 2160 pg/mL | B10
